Data: paper doi:10.1101/2021.08.21.457230

Target: T1, human SLC44A1 (human), Q8WWI5
T1 chain: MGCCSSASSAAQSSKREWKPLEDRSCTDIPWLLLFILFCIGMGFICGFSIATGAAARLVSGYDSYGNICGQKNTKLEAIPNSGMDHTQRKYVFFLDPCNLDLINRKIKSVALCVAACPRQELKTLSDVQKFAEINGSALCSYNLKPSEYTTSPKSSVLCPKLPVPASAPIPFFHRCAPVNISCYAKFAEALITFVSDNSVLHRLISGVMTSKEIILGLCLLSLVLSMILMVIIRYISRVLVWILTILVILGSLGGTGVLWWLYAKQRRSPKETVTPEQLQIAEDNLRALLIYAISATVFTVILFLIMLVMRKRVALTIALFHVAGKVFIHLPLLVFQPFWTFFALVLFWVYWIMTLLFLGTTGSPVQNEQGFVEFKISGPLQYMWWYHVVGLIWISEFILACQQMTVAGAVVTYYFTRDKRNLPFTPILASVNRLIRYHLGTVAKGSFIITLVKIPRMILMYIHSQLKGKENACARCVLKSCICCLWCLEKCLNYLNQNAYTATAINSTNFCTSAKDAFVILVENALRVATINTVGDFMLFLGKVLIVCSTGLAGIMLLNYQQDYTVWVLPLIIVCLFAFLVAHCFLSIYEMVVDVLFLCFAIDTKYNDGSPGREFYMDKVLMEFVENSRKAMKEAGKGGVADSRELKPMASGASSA
Experiment: cryo-EM structure
Conditions: remark: other sources report otherwise

stoichiometry N: 2
B1: human SLC44A1, Q8WWI5 1-657 (natural protein)
chain: T1 chain
